In patent publication US20090104196A1 (UNIVERSITAETSKLINIKUM FREIBURG, published 2009):

Target: T1, LSD1 1-174 (N-terminus of LSD1), labelled (UniProt O60341 1-174)
T1 construct: Labelled LSD1 deletion mutant used in the GST pull-down; not shown: Flag tag of the CMX-Flag vector
Assay: GST pull-down, labelled LSD1 mutant
Method: GST, GST-Nix1, GST-ROR[…], and GST ERβ-NTD proteins were used as control. (NTD; N-terminal domain, DBD; DNA-binding domain, LBD; ligand-binding domain).
GST pull-down assays were performed with equal amounts of GST or GST fusion proteins as described¹⁷ using buffer containing either 150 mM KCl, 0.15% NP40 (FIG. 1b) or 600 mM KCl, 0.3% NP40 (FIG. 7a). Pull-downs with sepharose coupled histone H3 tail were performed as described²⁷ in 20 mM Tris pH 8.5, 150 mM NaCl, 0.5% NP40.10% of the in vitro translated proteins were loaded as input.

- binding result: no binding
B1: GST-AR-DBD (GST fused to the DNA-binding domain of the androgen receptor), bacterially expressed (other, UniProt P10275 560-632, looked up)
chain: CLICGDEASGCHYGALTCGSCKVFFKRAAEGKQKYLCASRNDCTIDKFRRKNCPSCRLRKCYEAGMTLGARKL
notes: also called GST-AR fusion protein; not shown: glutathione S-transferase (GST) fusion partner
